# Experimental data: US20100322950A1
# Target: CD44 receptors on SMMC-7721-SC2 hepatocellular carcinoma cells (human) (UniProt P16070)
# Assay: cell-based or functional assay
# Sequence of CD44 receptors on SMMC-7721-SC2 hepatocellular carcinoma cells (human) (P16070 21-742): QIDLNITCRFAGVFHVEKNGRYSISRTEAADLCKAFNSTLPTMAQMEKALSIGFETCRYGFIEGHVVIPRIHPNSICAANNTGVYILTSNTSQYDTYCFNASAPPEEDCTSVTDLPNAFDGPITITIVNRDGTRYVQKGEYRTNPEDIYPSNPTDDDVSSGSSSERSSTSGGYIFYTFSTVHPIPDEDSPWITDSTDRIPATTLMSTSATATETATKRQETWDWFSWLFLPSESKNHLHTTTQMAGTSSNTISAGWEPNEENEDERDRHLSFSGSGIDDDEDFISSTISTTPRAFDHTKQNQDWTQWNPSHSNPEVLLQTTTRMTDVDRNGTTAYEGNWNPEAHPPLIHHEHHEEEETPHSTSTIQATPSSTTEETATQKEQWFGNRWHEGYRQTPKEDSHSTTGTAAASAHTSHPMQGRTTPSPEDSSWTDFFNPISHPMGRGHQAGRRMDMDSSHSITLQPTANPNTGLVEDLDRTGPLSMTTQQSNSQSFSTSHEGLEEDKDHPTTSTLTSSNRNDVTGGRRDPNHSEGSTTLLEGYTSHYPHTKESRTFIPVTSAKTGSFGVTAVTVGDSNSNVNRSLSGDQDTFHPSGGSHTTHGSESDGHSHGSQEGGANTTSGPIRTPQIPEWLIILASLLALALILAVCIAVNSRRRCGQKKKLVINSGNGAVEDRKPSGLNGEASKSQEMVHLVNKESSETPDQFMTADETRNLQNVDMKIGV
substance,measurement,value
OPN-5 kD expressed from the pDest-490 vector with C-terminal 1xFLAG tag (from UniProt P10451 167-210) (ligand),"cellular invasion of SMMC-7721-SC2 cells through Matrigel, 36 hours",> 2 fold
